Measured values: US20240360194A1, “New Peptides as Potent and Selective GIP Receptor Agonists” (Sanofi, priority 2021, published 2024)
Numbered stars: 1 amine (or outer) side, 2 acyl side, 3 side chain; on linkers, the order of the positions; unused ones are H or OH. Square brackets hold non-standard residues; d marks the D form. Side chains are listed from the residue outwards. Ends that are not written are not given here. * marks the point of attachment. C18 diacid = O=C(O)CCCCCCCCCCCCCCCCC(=O)*; γGlu = O=C(O)[C@H](CCC(=O)[*:2])N[*:1]; αMeF = C[C@](N)(Cc1ccccc1)C(=O)O; hLeu = CC(C)CC[C@H](N)C(=O)O; Iva = CC[C@](C)(N)C(=O)O; Abu = CC[C@H](N)C(=O)O; AEEA = NCCOCCOCC(=O)O; Aib = CC(C)(N)C(=O)O

T1: human GIP receptor (human, UniProt P48546 22-466)
T1 sequence (looked up): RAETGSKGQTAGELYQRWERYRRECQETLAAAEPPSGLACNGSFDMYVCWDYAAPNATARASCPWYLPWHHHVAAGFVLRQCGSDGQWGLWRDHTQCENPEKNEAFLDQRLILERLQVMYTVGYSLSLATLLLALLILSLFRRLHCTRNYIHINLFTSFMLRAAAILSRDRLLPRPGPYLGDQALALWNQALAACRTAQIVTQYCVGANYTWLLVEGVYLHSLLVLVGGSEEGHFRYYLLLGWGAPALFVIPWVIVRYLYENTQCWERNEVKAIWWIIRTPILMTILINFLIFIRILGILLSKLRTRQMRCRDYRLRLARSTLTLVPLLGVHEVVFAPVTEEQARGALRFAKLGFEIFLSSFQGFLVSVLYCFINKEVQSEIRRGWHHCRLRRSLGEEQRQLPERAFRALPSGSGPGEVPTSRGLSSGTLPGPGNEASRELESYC

B1: SEQ ID NO: 32 (peptide)
peptide: H-Y[Aib]EGTFISDLSI[Aib]K([AEEA-AEEA-γGlu-C18 diacid])DRIHQEE[αMeF]IEWLLAQGPSSGAPPPS-NH2
SMILES: CC[C@H](C)[C@H](NC(=O)[C@H](CCCNC(=N)N)NC(=O)[C@H](CC(=O)O)NC(=O)[C@H](CCCCNC(=O)COCCOCCNC(=O)COCCOCCNC(=O)CC[C@H](NC(=O)CCCCCCCCCCCCCCCCC(=O)O)C(=O)O)NC(=O)C(C)(C)NC(=O)[C@@H](NC(=O)[C@H](CO)NC(=O)[C@H](CC(C)C)NC(=O)[C@H](CC(=O)O)NC(=O)[C@H](CO)NC(=O)[C@@H](NC(=O)[C@H](Cc1ccccc1)NC(=O)[C@@H](NC(=O)CNC(=O)[C@H](CCC(=O)O)NC(=O)C(C)(C)NC(=O)[C@@H](N)Cc1ccc(O)cc1)[C@@H](C)O)[C@@H](C)CC)[C@@H](C)CC)C(=O)N[C@@H](Cc1c[nH]cn1)C(=O)N[C@@H](CCC(N)=O)C(=O)N[C@@H](CCC(=O)O)C(=O)N[C@@H](CCC(=O)O)C(=O)N[C@@](C)(Cc1ccccc1)C(=O)N[C@H](C(=O)N[C@@H](CCC(=O)O)C(=O)N[C@@H](Cc1c[nH]c2ccccc12)C(=O)N[C@@H](CC(C)C)C(=O)N[C@@H](CC(C)C)C(=O)N[C@@H](C)C(=O)N[C@@H](CCC(N)=O)C(=O)NCC(=O)N1CCC[C@H]1C(=O)N[C@@H](CO)C(=O)N[C@@H](CO)C(=O)NCC(=O)N[C@@H](C)C(=O)N1CCC[C@H]1C(=O)N1CCC[C@H]1C(=O)N1CCC[C@H]1C(=O)N[C@@H](CO)C(N)=O)[C@@H](C)CC
notes: Synthetic peptide, 39 residues
B2: SEQ ID NO: 34 (peptide)
peptide: H-Y[Aib]EGTFISD[hLeu]SI[Aib]K([AEEA-AEEA-γGlu-C18 diacid])DRIHQEEFIEWLLAQGPSSGAPPPS-NH2
SMILES: CC[C@H](C)[C@H](NC(=O)[C@H](Cc1ccccc1)NC(=O)[C@H](CCC(=O)O)NC(=O)[C@H](CCC(=O)O)NC(=O)[C@H](CCC(N)=O)NC(=O)[C@H](Cc1c[nH]cn1)NC(=O)[C@@H](NC(=O)[C@H](CCCNC(=N)N)NC(=O)[C@H](CC(=O)O)NC(=O)[C@H](CCCCNC(=O)COCCOCCNC(=O)COCCOCCNC(=O)CC[C@H](NC(=O)CCCCCCCCCCCCCCCCC(=O)O)C(=O)O)NC(=O)C(C)(C)NC(=O)[C@@H](NC(=O)[C@H](CO)NC(=O)[C@H](CCC(C)C)NC(=O)[C@H](CC(=O)O)NC(=O)[C@H](CO)NC(=O)[C@@H](NC(=O)[C@H](Cc1ccccc1)NC(=O)[C@@H](NC(=O)CNC(=O)[C@H](CCC(=O)O)NC(=O)C(C)(C)NC(=O)[C@@H](N)Cc1ccc(O)cc1)[C@@H](C)O)[C@@H](C)CC)[C@@H](C)CC)[C@@H](C)CC)C(=O)N[C@@H](CCC(=O)O)C(=O)N[C@@H](Cc1c[nH]c2ccccc12)C(=O)N[C@@H](CC(C)C)C(=O)N[C@@H](CC(C)C)C(=O)N[C@@H](C)C(=O)N[C@@H](CCC(N)=O)C(=O)NCC(=O)N1CCC[C@H]1C(=O)N[C@@H](CO)C(=O)N[C@@H](CO)C(=O)NCC(=O)N[C@@H](C)C(=O)N1CCC[C@H]1C(=O)N1CCC[C@H]1C(=O)N1CCC[C@H]1C(=O)N[C@@H](CO)C(N)=O
notes: as for B1
B3: SEQ ID NO: 25 (peptide)
peptide: H-Y[Aib]EGT[Abu]ISDLSI[Aib]K([AEEA-AEEA-γGlu-C18 diacid])DRIHQEEFIEWLLAQGPSSGAPPPS-NH2
SMILES: CC[C@H](NC(=O)[C@@H](NC(=O)CNC(=O)[C@H](CCC(=O)O)NC(=O)C(C)(C)NC(=O)[C@@H](N)Cc1ccc(O)cc1)[C@@H](C)O)C(=O)N[C@H](C(=O)N[C@@H](CO)C(=O)N[C@@H](CC(=O)O)C(=O)N[C@@H](CC(C)C)C(=O)N[C@@H](CO)C(=O)N[C@H](C(=O)NC(C)(C)C(=O)N[C@@H](CCCCNC(=O)COCCOCCNC(=O)COCCOCCNC(=O)CC[C@H](NC(=O)CCCCCCCCCCCCCCCCC(=O)O)C(=O)O)C(=O)N[C@@H](CC(=O)O)C(=O)N[C@@H](CCCNC(=N)N)C(=O)N[C@H](C(=O)N[C@@H](Cc1c[nH]cn1)C(=O)N[C@@H](CCC(N)=O)C(=O)N[C@@H](CCC(=O)O)C(=O)N[C@@H](CCC(=O)O)C(=O)N[C@@H](Cc1ccccc1)C(=O)N[C@H](C(=O)N[C@@H](CCC(=O)O)C(=O)N[C@@H](Cc1c[nH]c2ccccc12)C(=O)N[C@@H](CC(C)C)C(=O)N[C@@H](CC(C)C)C(=O)N[C@@H](C)C(=O)N[C@@H](CCC(N)=O)C(=O)NCC(=O)N1CCC[C@H]1C(=O)N[C@@H](CO)C(=O)N[C@@H](CO)C(=O)NCC(=O)N[C@@H](C)C(=O)N1CCC[C@H]1C(=O)N1CCC[C@H]1C(=O)N1CCC[C@H]1C(=O)N[C@@H](CO)C(N)=O)[C@@H](C)CC)[C@@H](C)CC)[C@@H](C)CC)[C@@H](C)CC
notes: as for B1
B4: SEQ ID NO: 28 (peptide)
peptide: Y[Aib]EGTFISDLSI[Aib]K([AEEA-AEEA-γGlu-C18 diacid])DRIHQEEFIEWLLAQEPSSGAPPPS-OH
modifications: N-terminus assumed
SMILES: CC[C@H](C)[C@H](NC(=O)[C@H](Cc1ccccc1)NC(=O)[C@H](CCC(=O)O)NC(=O)[C@H](CCC(=O)O)NC(=O)[C@H](CCC(N)=O)NC(=O)[C@H](Cc1c[nH]cn1)NC(=O)[C@@H](NC(=O)[C@H](CCCNC(=N)N)NC(=O)[C@H](CC(=O)O)NC(=O)[C@H](CCCCNC(=O)COCCOCCNC(=O)COCCOCCNC(=O)CC[C@H](NC(=O)CCCCCCCCCCCCCCCCC(=O)O)C(=O)O)NC(=O)C(C)(C)NC(=O)[C@@H](NC(=O)[C@H](CO)NC(=O)[C@H](CC(C)C)NC(=O)[C@H](CC(=O)O)NC(=O)[C@H](CO)NC(=O)[C@@H](NC(=O)[C@H](Cc1ccccc1)NC(=O)[C@@H](NC(=O)CNC(=O)[C@H](CCC(=O)O)NC(=O)C(C)(C)NC(=O)[C@@H](N)Cc1ccc(O)cc1)[C@@H](C)O)[C@@H](C)CC)[C@@H](C)CC)[C@@H](C)CC)C(=O)N[C@@H](CCC(=O)O)C(=O)N[C@@H](Cc1c[nH]c2ccccc12)C(=O)N[C@@H](CC(C)C)C(=O)N[C@@H](CC(C)C)C(=O)N[C@@H](C)C(=O)N[C@@H](CCC(N)=O)C(=O)N[C@@H](CCC(=O)O)C(=O)N1CCC[C@H]1C(=O)N[C@@H](CO)C(=O)N[C@@H](CO)C(=O)NCC(=O)N[C@@H](C)C(=O)N1CCC[C@H]1C(=O)N1CCC[C@H]1C(=O)N1CCC[C@H]1C(=O)N[C@@H](CO)C(=O)O
notes: Synthetic peptide, 39 residues (Glu at 30)

How the values were obtained:
human GLP-1 receptor [1] = molecular target: T2, human GLP-1 receptor (human, UniProt P43220 24-463); assay: displacement of [125I]GLP-1 from HEK-293 membranes expressing hGLP-1R (SPA beads)
T2 construct: whole, on cells; also called hGLP-1R; hGLP-1 R

human GIP receptor [2] = molecular target: T1, human GIP receptor; assay: cell-based or functional assay
human GLP-1 receptor [3] = molecular target: T2, human GLP-1 receptor; assay: cell-based or functional assay
human GIP receptor [4] = molecular target: T1, human GIP receptor; assay: cell-based or functional assay; remark: listed apart in the source

Binder	IC50 (human GLP-1 receptor [1])	EC50 hGIPR 0% HSA (cAMP, HEK-293) (human GIP receptor [2])	EC50 hGIPR 0.1% BSA (cAMP, HEK-293) (human GIP receptor [2])	EC50 hGLP-1R 0.1% BSA (cAMP, HEK-293) (human GLP-1 receptor [3])	hGIPR EC50 (cAMP, human adipocytes) (human GIP receptor [4])	hGIPR Emax (cAMP, human adipocytes) (human GIP receptor [4])
H-Y[Aib]EGTFISDLSI[Aib]K([AEEA-AEEA-γGlu-C18 diacid])DRIHQ[Aib]EFIEW[Iva]LAQGPSSGAPPPS-NH2 (Synthetic peptide, 39 residues) [SEQ ID NO: 31]	292 nM	0.00015 nM	0.00696 nM	> 10 nM	0.7 nM	121%
B1	650 nM	0.00096 nM	0.119 nM	> 10 nM	0.6 nM	109%
B2	195 nM	0.00022 nM	0.0335 nM	> 10 nM	0.5 nM	112%
B3	417 nM	0.00028 nM	0.0144 nM	> 10 nM	0.2 nM	112%
B4	426 nM	0.00073 nM	0.0647 nM	> 10 nM	0.5 nM	103%
